Measurements published in publication PMC2912450.

Biological target: His-tagged FliK (Salmonella) (UniProt P26416)
Assay: SPR

| Substance | Kd |
| --- | --- |
| FlhBc(N269A) (domain or fragment) | 10.5 µM |
| FlhBc(P270A) (domain or fragment) | 1.6 µM |
